Key:
[1] = tested on: O=[N+]([O-])c1ccc(OS(=O)(=O)O)cc1; test: purified protein; details: varied donor pNPS 0.02-50 mM, acceptor phenol (5-200 mM), 30 °C, activity buffer Tris-glycine pH 8.9
[2] = tested on: T1, O=[N+]([O-])c1ccc(OS(=O)(=O)O)cc1; test: purified protein; type: biochemical, Desulfosporosinus sp. HMP52; details: varied donor pNPS 0.02-50 mM, acceptor phenol (5-200 mM), 30 °C, activity buffer Tris-glycine pH 8.9
T1 construct: C-terminal His6 tag, pET-26b(+) NcoI/SacI, E. coli BL21(DE3)pLysS, IMAC, ca. 70 kDa

DalAST (Desulfofalx alkaliphila)
Km [1]: 0.034 ± 0.002 mM | kcat [1]: 0.705 ± 0.007 s⁻¹ | kcat/Km [1]: 21000 M⁻¹ s⁻¹

DsAST (Desulfosporosinus sp. HMP52)
Km [2]: 0.57 ± 0.02 mM | kcat [2]: 32.5 ± 0.4 s⁻¹ | kcat/Km [2]: 57000 M⁻¹ s⁻¹

— publication PMC11468790, “New Bacterial Aryl Sulfotransferases: Effective Tools for Sulfation of Polyphenols” (Journal of Agricultural and Food Chemistry, 2024)
